According to PMC9276808, “Structural identification of riluzole-binding site on human TRPC5” (Cell Discovery, 2022):

Molecular target: the molecule itself
Assay: cryo-EM structure; purified hTRPC5(1-764) supplemented with riluzole; single particle analysis, global resolution 2.4 Å

B1: truncated functional human TRPC5 (hTRPC5_(1–764)) (domain or fragment, UniProt Q9UL62 1-764, looked up)
chain: MAQLYYKKVNYSPYRDRIPLQIVRAETELSAEEKAFLNAVEKGDYATVKQALQEAEIYYNVNINCMDPLGRSALLIAIENENLEIMELLLNHSVYVGDALLYAIRKEVVGAVELLLSYRRPSGEKQVPTLMMDTQFSEFTPDITPIMLAAHTNNYEIIKLLVQKRVTIPRPHQIRCNCVECVSSSEVDSLRHSRSRLNIYKALASPSLIALSSEDPILTAFRLGWELKELSKVENEFKAEYEELSQQCKLFAKDLLDQARSSRELEIILNHRDDHSEELDPQKYHDLAKLKVAIKYHQKEFVAQPNCQQLLATLWYDGFPGWRRKHWVVKLLTCMTIGFLFPMLSIAYLISPRSNLGLFIKKPFIKFICHTASYLTFLFMLLLASQHIVRTDLHVQGPPPTVVEWMILPWVLGFIWGEIKEMWDGGFTEYIHDWWNLMDFAMNSLYLATISLKIVAYVKYNGSRPREEWEMWHPTLIAEALFAISNILSSLRLISLFTANSHLGPLQISLGRMLLDILKFLFIYCLVLLAFANGLNQLYFYYETRAIDEPNNCKGIRCEKQNNAFSTLFETLQSLFWSVFGLLNLYVTNVKARHEFTEFVGATMFGTYNVISLVVLLNMLIAMMNNSYQLIADHADIEWKFARTKLWMSYFDEGGTLPPPFNIIPSPKSFLYLGNWFNNTFCPKRDPDGRRRRRNLRSFTERNADSLIQNQHYQEVIRNLVKRYVAAMIRNSKTHEGLTEENFKELKQDISSFRYEVLDLLGNR
notes: The sample was supplemented with riluzole, and Ca2+, DAG and lipids are seen in the map; also called transient receptor potential canonical subfamily member 5; source: purified
Question: How did the “stoichiometry N” value turn out when B1 was run?
Answer: 4
